In the RNAGym collection of RNA variant scans (doi:10.1021/acssynbio.7b00057):

B1: Pistol ribozyme (parent)
chain: GGGUCGUUGUUCCAUAAUCGCGUGGAUAUGGCACGCAAGUUUCUACCGGGCACCGUAAAUGUCCGACUGGAGCCGUUCGGGCGGCUAUAAACAGACCUCAGGCCCGAAGCGUGGCGGCACCUGCCGCCGGUGGUAAAAAAGAUCGGAAGAGCACACGUCU

Variants of: B1
Assay: aptazyme ON/OFF ratio, guanine; higher = stronger switching; co-transcriptional cleavage with and without guanine

Aptazyme ON/OFF ratio, 1.48:
U7A U8A G9C U10G U11G C13U

Aptazyme ON/OFF ratio, 1.22:
U7A U8A G9U C12U C13U
U7A U8A G9C
U7A U8A G9C C12A
U7A U8A G9U U10A U11A C12A
U7A U8A G9C U11G C12A C13G
U7A U8A G9C U10G C12G C13A
U7A U8A G9C U10G C12G C13U
U7A U8A G9C U10G C12U C13A
U7A U8A G9C U11A C12A

Aptazyme ON/OFF ratio, 1.09:
U7A U8A G9C U10G C12A C13G
U7A U8A G9C U11C C12U
U7A U8A G9C U10C U11A C12U C13U
U7A U8A G9C U10G U11C C13A
U7A U8A G9C U10A U11A C13G
U7A U8A G9C U10C U11G C12G

Aptazyme ON/OFF ratio, 1.03:
U7A U8A G9C U10C U11C C13A
U7A U8A G9C U10C U11A C12U C13A

Aptazyme ON/OFF ratio, 1.2:
U7A U8A G9U U10A C12G C13A
U7A U8A G9C U10A C12A
U7A U8A G9C U10G U11A C12A C13U
U7A U8A G9U U10A U11A C12A C13G
U7A U8A G9C U10A U11A C12U C13A
U7A U8A G9C U11A C12U

Aptazyme ON/OFF ratio, 1.23:
U7A U8A G9U U10A U11A C12G
U7A U8A G9U U10A U11A C13A
U7A U8A G9C C12U C13G
U7A U8A G9C U11G C12A C13U
U7A U8A G9C U10A U11A C13A
U7A U8A G9C U10A U11A C12G C13G

Aptazyme ON/OFF ratio, 2.12:
U7A U8A G9U

Aptazyme ON/OFF ratio, 1.34:
U7A U8A G9U C12U C13A
U7A U8A G9U U10A U11A C12U

Aptazyme ON/OFF ratio, 1.24:
U7A U8A G9C U10A U11G C13U
U7A U8A G9C C12A C13U
U7A U8A G9C U10G U11C C12U C13U
U7A U8A G9U U10A C13U
U7A U8A G9A U11C C12U C13A

Aptazyme ON/OFF ratio, 1.3:
U7A U8A G9U U10A C12G C13U
U7A U8A G9A U11G C12G

Aptazyme ON/OFF ratio, 1.4:
U7A U8A G9C U11G C12G

Aptazyme ON/OFF ratio, 1.1:
U7A U8A G9C U11G C12A
U7A U8A G9C U10G U11C
U7A U8A G9C U10C U11G C12G C13A
U7A U8A G9C U10C C12U C13G
U7A U8A G9C C12G
U7A U8A G9C U11C C12G
U7A U8A G9C U10G C12A
U7A U8A G9C U10C U11A C12U C13G
U7A U8A G9C U10G U11A C12U C13U

Aptazyme ON/OFF ratio, 1.25:
U7A U8A G9U C12A C13A
U7A U8A G9U C12A C13G
U7A U8A G9C U10A C12G
U7A U8A G9U U10A

Aptazyme ON/OFF ratio, 1.19:
U7A U8A G9C U10G U11C C12U C13G
U7A U8A G9C U10A U11C C12U C13G
U7A U8A G9C U10G C12U C13G
U7A U8A G9C U10A U11A C12G C13U
U7A U8A G9C U11A C12G

Aptazyme ON/OFF ratio, 1.12:
U7A U8A G9C U10G U11A C12A C13G

Aptazyme ON/OFF ratio, 1.33:
U7A U8A G9C U10G C12G

Aptazyme ON/OFF ratio, 1.76:
U7A U8A G9C U10G U11G C12A

Aptazyme ON/OFF ratio, 1.27:
U7A U8A G9C U10G C12A C13U
U7A U8A G9U U10A U11A C13U
U7A U8A G9C U10A U11A C13U

Aptazyme ON/OFF ratio, 1.06:
U7A U8A G9C U10G U11A
U7A U8A G9C U10C U11A C12G
U7A U8A G9C U10C U11A C12A
U7A U8A G9C U11A C13G
U7A U8A G9C U11C C12G C13A
U7A U8A G9C U10C U11G C12U C13U

Aptazyme ON/OFF ratio, 1.15:
U7A U8A G9C U11A C12A C13U
U7A U8A G9C U10A C12U
U7A U8A G9C U10G U11G C12U C13G
U7A U8A G9C C12U C13A
U7A U8A G9U U10A U11A C12G C13A
U7A U8A G9C U10G U11C C12U C13A
U7A U8A G9A U11G C13A
U7A U8A G9C U10A C12G C13A

Aptazyme ON/OFF ratio, 1.71:
U7A U8A G9C U11G C12U

Aptazyme ON/OFF ratio, 1.69:
U7A U8A G9A U11G C12U

Aptazyme ON/OFF ratio, 1.28:
U7A U8A G9C U10G U11G C13A

Aptazyme ON/OFF ratio, 1.35:
U7A U8A G9U U10A U11A C12A C13A

Aptazyme ON/OFF ratio, 1.32:
U7A U8A G9C U11G C12G C13G
U7A U8A G9C U10G C12U C13U

Aptazyme ON/OFF ratio, 1.11:
U7A U8A G9C U10A U11G C13G
U7A U8A G9C U10A U11G C12U C13G
U7A U8A G9C U10A C12A C13A
U7A U8A G9C U10A U11C C12U C13U
U7A U8A G9C U10G C12G C13G
U7A U8A G9A U11G C12A
U7A U8A G9C U10G U11A C12U C13A

Aptazyme ON/OFF ratio, 1.43:
U7A U8A G9U U10A C13A

Aptazyme ON/OFF ratio, 1.18:
U7A U8A G9C U11A C12A C13G
U7A U8A G9C U10G C12A C13A
U7A U8A G9U U10A C12G C13G
U7A U8A G9C U10G U11G C12U C13U
U7A U8A G9C U10A C12A C13U
U7A U8A G9C U10G U11G C13G
U7A U8A G9C U10A U11G C12A C13G
U7A U8A G9U U10A U11A C12A C13U
U7A U8A G9C U10A U11A C12U C13G
U7A U8A G9C U10A U11A C12G C13A
U7A U8A G9A U11G C12U C13G
U7A U8A G9U U10A U11C C12G C13A

Aptazyme ON/OFF ratio, 1.26:
U7A U8A G9C C12U
U7A U8A G9A U11G C12U C13U

Aptazyme ON/OFF ratio, 1.56:
U7A U8A G9C U10G U11G C12G

Aptazyme ON/OFF ratio, 1.14:
U7A U8A G9C U10A U11G C12U C13U
U7A U8A G9U U10A U11A C12G C13G
U7A U8A G9A U11G C13G

Aptazyme ON/OFF ratio, 1.66:
U7A U8A G9C U10G U11G

Aptazyme ON/OFF ratio, 1.41:
U7A U8A G9C U10G C12U

Aptazyme ON/OFF ratio, 1.21:
U7A U8A G9C U11A C13A
U7A U8A G9A U11C C12U C13G

Aptazyme ON/OFF ratio, 1.08:
U7A U8A G9C U11A C12A C13A
U7A U8A G9C U10C U11G C12G C13U
U7A U8A G9C U10C U11G C12G C13G
U7A U8A G9C U10A U11G C12A C13U
U7A U8A G9U U10A C13G
U7A U8A G9C U11C C12A C13A
U7A U8A G9C U10C U11G C12U
U7A U8A G9C U11C C13A
U7A U8A G9A U11C C12U C13U

Aptazyme ON/OFF ratio, 1.52:
U7A U8A G9U C12A C13U

Aptazyme ON/OFF ratio, 1.07:
U7A U8A G9C U10C U11A C12U
U7A U8A G9C U10C C12U C13U
U7A U8A G9C U11C C12A
U7A U8A G9C U10C U11C C13G
U7A U8A G9U U10A U11A C13G
U7A U8A G9C U11C C12G C13U
U7A U8A G9C U11C C12G C13G
U7A U8A G9C U10A U11G C12A C13A
U7A U8A G9C U11C C12A C13G
U7A U8A G9C U10C U11G C12A
U7A U8A G9C U11C C13U
U7A U8A G9C U11C C13G

Aptazyme ON/OFF ratio, 1.31:
U7A U8A G9C U11G C12G C13A

Aptazyme ON/OFF ratio, 1.05:
U7A U8A G9C U11C C12A C13U
U7A U8A G9C U10C U11G C12U C13G

Aptazyme ON/OFF ratio, 1.29:
U7A U8A G9A U11G C13U
U7A U8A G9A U11G

Aptazyme ON/OFF ratio, 1.16:
U7A U8A G9U C12U C13G
U7A U8A G9C U11G C12G C13U
U7A U8A G9C U10A C12A C13G
U7A U8A G9A U11G C12U C13A
U7A U8A G9C U10A C12G C13U

Aptazyme ON/OFF ratio, 1.04:
U7A U8A G9C U10C U11C C13U
U7A U8A G9U U10A U11A C12G C13U
U7A U8A G9C U10G U11C C13U
U7A U8A G9C U10G U11C C13G

Aptazyme ON/OFF ratio, 1.42:
U7A U8A G9C C12U C13U

Aptazyme ON/OFF ratio, 1.17:
U7A U8A G9C U10A U11G C13A
U7A U8A G9C U11A C13U
U7A U8A G9C U10G U11G C12U C13A
U7A U8A G9C C12A C13A
U7A U8A G9C U10A U11G C12U C13A
U7A U8A G9C U11G C12A C13A
U7A U8A G9C U10G U11A C12A C13A

Aptazyme ON/OFF ratio, 1.39:
U7A U8A G9C U10G U11G C12U

Aptazyme ON/OFF ratio, 1.13:
U7A U8A G9C C12A C13G
U7A U8A G9C U10A U11C C12U C13A
U7A U8A G9C U10A U11A C12U C13U
U7A U8A G9C U10A C12G C13G
U7A U8A G9C U10G U11A C12U C13G

Aptazyme ON/OFF ratio, 1.02:
U7A U8A G9C U10C C12U C13A
U7A U8A G9C U10C U11G C12U C13A
